This assay deals with T1, GST-CESA3CD (catalytic domain of cellulose synthase CESA3 fused to GST) (Arabidopsis thaliana, UniProt Q941L0 305-843).
T1 sequence (looked up): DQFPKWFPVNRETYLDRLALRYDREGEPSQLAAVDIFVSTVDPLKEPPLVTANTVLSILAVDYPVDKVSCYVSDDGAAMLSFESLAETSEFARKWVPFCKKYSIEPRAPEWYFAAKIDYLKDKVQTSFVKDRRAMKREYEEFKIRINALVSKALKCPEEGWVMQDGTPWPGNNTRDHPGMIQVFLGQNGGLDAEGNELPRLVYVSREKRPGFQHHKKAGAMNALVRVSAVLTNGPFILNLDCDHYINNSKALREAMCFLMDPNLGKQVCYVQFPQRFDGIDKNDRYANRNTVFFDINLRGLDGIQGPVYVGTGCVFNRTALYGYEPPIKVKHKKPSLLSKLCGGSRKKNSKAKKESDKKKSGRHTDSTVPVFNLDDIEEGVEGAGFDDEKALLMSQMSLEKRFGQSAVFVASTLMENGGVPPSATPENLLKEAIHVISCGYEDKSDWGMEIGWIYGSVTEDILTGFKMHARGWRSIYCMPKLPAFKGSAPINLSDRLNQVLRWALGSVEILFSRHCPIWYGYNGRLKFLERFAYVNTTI
The experiment in a line: pull-down.

B1: His-tagged full-length CALCIUM-DEPENDENT PROTEIN KINASE32 (His-CPK32) (enzyme, Arabidopsis thaliana, UniProt Q6NLQ6 1-538, looked up)
chain: MGNCCGTAGSLAQNDNKPKKGRKKQNPFSIDYGLHHGGGDGGGRPLKLIVLNDPTGREIESKYTLGRELGRGEFGVTYLCTDKETDDVFACKSILKKKLRTAVDIEDVRREVEIMRHMPEHPNVVTLKETYEDEHAVHLVMELCEGGELFDRIVARGHYTERAAAAVTKTIMEVVQVCHKHGVMHRDLKPENFLFGNKKETAPLKAIDFGLSVFFKPGERFNEIVGSPYYMAPEVLKRNYGPEVDIWSAGVILYILLCGVPPFWAETEQGVAQAIIRSVLDFRRDPWPKVSENAKDLIRKMLDPDQKRRLTAQQVLDHPWLQNAKTAPNVSLGETVRARLKQFTVMNKLKKRALRVIAEHLSDEEASGIREGFQIMDTSQRGKINIDELKIGLQKLGHAIPQDDLQILMDAGDIDRDGYLDCDEFIAISVHLRKMGNDEHLKKAFAFFDQNNNGYIEIEELREALSDELGTSEEVVDAIIRDVDTDKDGRISYEEFVTMMKTGTDWRKASRQYSRERFNSISLKLMQDASLQVNGDTR
As for B1, the binding result is given as “binds”.

The values above are taken from publication doi:10.1101/2023.02.01.526621 (bioRxiv, 2023).
